# In US20160032014A1 (Amgen, published 2016):
# Changes are numbered by the printed parent chain. Numbers in names are those of the source.
# B1: SS-15195 (antibody, V domains shown)
# VH: not shown
# VL: DIVMTQSPLSLPVTPGEPASISCRSSQSLLHSNGHNYLDWYLQKPGQSPQLLIYLGLNRAHGVPDRFSGSGSGTDFTLKISRVEAEDVGVYYCMQALQTPLTFGGGTKVEIKR
# notes: HC I107M, LC Y35H, S57L, S61H
# B2: SS-13993 (antibody, V domains shown)
# VH: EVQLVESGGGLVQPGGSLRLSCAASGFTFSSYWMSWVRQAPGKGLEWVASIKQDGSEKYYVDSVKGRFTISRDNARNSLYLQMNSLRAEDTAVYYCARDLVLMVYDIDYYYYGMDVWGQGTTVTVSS
# VL: B1 VL with H61S, S72H
# notes: HC WT, LC Tyr38(35)His, Ser68(57)Leu, Ser83(72)His; also called C02
# B3: SS-13991 (antibody, V domains shown)
# VH: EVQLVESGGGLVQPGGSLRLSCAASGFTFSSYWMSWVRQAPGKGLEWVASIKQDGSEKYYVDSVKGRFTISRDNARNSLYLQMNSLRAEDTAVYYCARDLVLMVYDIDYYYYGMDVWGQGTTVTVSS
# VL: B1 VL
# notes: HC WT, LC Tyr38(35)His, Ser68(57)Leu, Ser72(61)His; also called A02
# B4: SS-15497 (antibody, V domains shown)
# VH: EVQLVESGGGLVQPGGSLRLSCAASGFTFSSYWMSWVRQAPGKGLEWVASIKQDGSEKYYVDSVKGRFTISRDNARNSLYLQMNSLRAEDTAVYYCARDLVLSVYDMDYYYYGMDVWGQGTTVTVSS
# VL: DIVMTQSPLSLPVTPGEPASISCRSSQSLLHSGNGYNYLDWYLQKPGQSPQLLIYLGLNRASGVPDRFSGSGSGTDFTLKISRVEAEDVGVYYCMQAIHTPLTFGGGTKVEIKR
# notes: HC VH6 (M103S, I107M), LC G33 insertion, S57L, L97I, Q98H
# B5: SS-15518 (antibody, V domains shown)
# VH: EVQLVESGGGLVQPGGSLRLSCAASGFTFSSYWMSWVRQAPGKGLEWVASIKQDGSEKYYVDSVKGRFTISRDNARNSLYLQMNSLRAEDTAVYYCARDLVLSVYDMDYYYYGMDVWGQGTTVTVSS
# VL: B4 VL with L58N
# notes: HC VH6, LC G33, S57N, L97I, Q98H
# B6: SS-15519 (antibody, V domains shown)
# VH: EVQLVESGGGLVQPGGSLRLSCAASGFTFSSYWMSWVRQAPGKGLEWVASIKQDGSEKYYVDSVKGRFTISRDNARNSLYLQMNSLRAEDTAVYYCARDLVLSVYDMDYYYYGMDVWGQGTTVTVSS
# VL: B4 VL with L58W
# notes: HC VH6, LC G33, S57W, L97I, Q98H
# B7: SS-15516 (antibody, V domains shown)
# VH: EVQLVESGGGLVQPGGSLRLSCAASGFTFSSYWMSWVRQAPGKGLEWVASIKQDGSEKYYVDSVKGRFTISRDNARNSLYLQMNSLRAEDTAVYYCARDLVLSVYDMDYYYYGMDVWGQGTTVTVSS
# VL: B4 VL with L58F
# notes: HC VH6, LC G33, S57F, L97I, Q98H
# B8: SS-15515 (antibody, V domains shown)
# VH: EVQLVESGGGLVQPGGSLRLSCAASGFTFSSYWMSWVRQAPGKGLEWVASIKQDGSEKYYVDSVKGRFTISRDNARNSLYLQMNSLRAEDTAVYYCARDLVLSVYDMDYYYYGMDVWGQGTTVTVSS
# VL: B4 VL with L58M
# notes: HC VH6, LC G33, S57M, L97I, Q98H
# B9: SS-15520 (antibody, V domains shown)
# VH: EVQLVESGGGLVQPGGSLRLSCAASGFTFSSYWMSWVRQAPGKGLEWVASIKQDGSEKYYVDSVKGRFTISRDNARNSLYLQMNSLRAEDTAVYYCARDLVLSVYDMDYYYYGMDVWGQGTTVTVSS
# VL: B4 VL with L58Q
# notes: HC VH6, LC G33, S57Q, L97I, Q98H
# B10: SS-14894 (antibody, V domains shown)
# VH: not shown
# VL: B4 VL with I98L, H99Q
# notes: HC I107M, LC G33, S57L
# B11: 8A3 variant HC I107M / LC N33Y, Y35H, S57L, S61H (antibody, V domains shown)
# VH: not shown
# VL: B1 VL with N33Y
# B12: SS-15505 (antibody, V domains shown)
# VH: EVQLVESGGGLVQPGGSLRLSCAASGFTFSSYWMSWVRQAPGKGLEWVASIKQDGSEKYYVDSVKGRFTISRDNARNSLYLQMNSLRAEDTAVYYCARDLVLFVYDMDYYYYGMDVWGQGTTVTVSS
# VL: B1 VL
# notes: HC M103F/I107M, LC Y35H, S57L, S61H
# B13: SS-15504 (antibody, V domains shown)
# VH: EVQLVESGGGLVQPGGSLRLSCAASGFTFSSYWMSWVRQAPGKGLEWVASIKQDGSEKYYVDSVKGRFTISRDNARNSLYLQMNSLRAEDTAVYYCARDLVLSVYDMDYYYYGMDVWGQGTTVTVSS
# VL: B1 VL
# notes: HC M103S/I107M, LC Y35H, S57L, S61H
# B14: SS-15506 (antibody, V domains shown)
# VH: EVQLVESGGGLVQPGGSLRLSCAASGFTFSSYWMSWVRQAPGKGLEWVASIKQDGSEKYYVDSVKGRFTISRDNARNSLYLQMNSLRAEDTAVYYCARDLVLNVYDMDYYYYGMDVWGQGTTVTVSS
# VL: B1 VL
# notes: HC M103N/I107M, LC Y35H, S57L, S61H
# B15: SS-15496 (antibody, V domains shown)
# VH: not shown
# VL: B1 VL with N33F
# notes: HC I107M, LC N33F, Y35H, S57L, S61H
# B16: 8A3 variant HC M103F/I107M / LC N33Y, Y35H, S57L, S61H (antibody, V domains shown)
# VH: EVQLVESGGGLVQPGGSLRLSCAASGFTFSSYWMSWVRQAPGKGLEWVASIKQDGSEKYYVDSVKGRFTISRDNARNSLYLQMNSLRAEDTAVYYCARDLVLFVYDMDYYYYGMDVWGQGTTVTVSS
# VL: B1 VL with N33Y
# B17: SS-15495 (antibody, V domains shown)
# VH: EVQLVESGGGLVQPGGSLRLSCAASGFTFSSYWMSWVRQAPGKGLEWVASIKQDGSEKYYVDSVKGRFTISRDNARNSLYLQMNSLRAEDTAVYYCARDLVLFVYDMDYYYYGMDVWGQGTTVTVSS
# VL: B1 VL with N33F
# notes: HC M103F/I107M, LC N33F, Y35H, S57L, S61H
# B18: 8A3 variant HC WT / LC N33Y, Y35H, S57L, S61H (antibody, V domains shown)
# VH: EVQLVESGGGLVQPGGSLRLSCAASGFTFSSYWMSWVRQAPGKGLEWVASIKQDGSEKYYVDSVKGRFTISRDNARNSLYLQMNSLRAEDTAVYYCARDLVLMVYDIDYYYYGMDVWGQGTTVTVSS
# VL: B1 VL with N33Y
# B19: SS-15500 (antibody, V domains shown)
# VH: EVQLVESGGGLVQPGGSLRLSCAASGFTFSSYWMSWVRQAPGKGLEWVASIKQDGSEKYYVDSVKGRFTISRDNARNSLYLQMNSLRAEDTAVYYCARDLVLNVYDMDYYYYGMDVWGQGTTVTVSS
# VL: B1 VL with N33Y
# B20: 8A3 variant HC M103N/I107M / LC N33Y, Y35H, S57L, S61H (antibody, V domains shown)
# VH: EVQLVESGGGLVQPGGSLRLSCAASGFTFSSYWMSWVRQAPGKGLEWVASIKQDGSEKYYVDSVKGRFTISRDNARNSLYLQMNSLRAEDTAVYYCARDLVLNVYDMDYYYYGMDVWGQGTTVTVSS
# VL: B1 VL with N33Y
# B21: 8A3 variant HC M103S/I107M / LC N33Y, Y35H, S57L, S61H (antibody, V domains shown)
# VH: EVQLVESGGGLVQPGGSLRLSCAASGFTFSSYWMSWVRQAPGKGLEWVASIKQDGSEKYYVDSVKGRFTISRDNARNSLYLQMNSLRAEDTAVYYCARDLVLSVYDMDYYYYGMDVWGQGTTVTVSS
# VL: B1 VL with N33Y
# B22: SS-15501 (antibody, V domains shown)
# VH: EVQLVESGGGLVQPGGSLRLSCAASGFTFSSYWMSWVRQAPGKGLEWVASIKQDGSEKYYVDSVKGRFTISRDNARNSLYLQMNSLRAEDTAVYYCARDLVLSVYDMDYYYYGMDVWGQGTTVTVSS
# VL: B1 VL with N33F
# B23: SS-15508 (antibody, V domains shown)
# VH: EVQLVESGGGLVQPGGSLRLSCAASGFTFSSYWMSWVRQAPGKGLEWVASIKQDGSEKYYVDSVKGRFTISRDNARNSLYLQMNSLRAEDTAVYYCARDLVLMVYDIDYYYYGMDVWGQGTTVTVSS
# VL: B1 VL with N33F
# notes: HC WT, LC N33F, Y35H, S57L, S61H
# B24: SS-15499 (antibody, V domains shown)
# VH: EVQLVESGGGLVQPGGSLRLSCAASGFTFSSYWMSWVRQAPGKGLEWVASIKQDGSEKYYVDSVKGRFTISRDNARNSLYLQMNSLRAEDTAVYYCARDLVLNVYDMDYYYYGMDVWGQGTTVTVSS
# VL: B4 VL
# notes: No entry of its own
# B25: SS-15498 (antibody, V domains shown)
# VH: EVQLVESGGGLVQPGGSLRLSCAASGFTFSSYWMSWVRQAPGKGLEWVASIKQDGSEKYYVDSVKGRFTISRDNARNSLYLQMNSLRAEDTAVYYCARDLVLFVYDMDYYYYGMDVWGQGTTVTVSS
# VL: B4 VL
# notes: No entry of its own
# Target: T1, human PCSK9 (self-cleaved, mature, secreted PCSK9 comprising amino acids 31 to 692 of SEQ ID NO: 2) (human, UniProt Q8NBP7 31-692, biotinylated in the ELISAs)
# T1 construct: Limits 31-692 are stated for the immunogen; the assays only say human PCSK9; also called huPCSK9; rhu PCSK9
# Assay: solution equilibrium, BIAcore, pH 5.5
# Description: (§1) Antibody was immobilized on the second flow cell of a CM5 chip using amine coupling (reagents provided by GE Healthcare, Piscataway, N.J.) with an approximate density of 7000 RU. The first flow cell was used as a background control. […] Binding of free PCSK9 in the mixed solutions was measured by injecting over the antibody coated chip surface. One hundred percent PCSK9 binding signal on the antibody surface was determined in the absence of antibody in the solution. A decreased PCSK9 binding response with increasing concentrations of antibody in solution indicated PCSK9 was binding to the antibody, preventing PCSK9 from binding to the immobilized antibody surface. Plotting the PCSK9 binding signal versus antibody concentration, the KD was obtained from nonlinear regression of the competition curves using an n-curve one-site homogeneous binding model provided in the KinExA Pro software.
row,Kd,Binder
1,0.45 nM,B1
2,2.8 nM,B2
3,2.8 nM,B3
4,0.68 nM,B4
5,1.2 nM,B5
6,0.86 nM,B6
7,1 nM,B7
8,1.5 nM,B8
9,1.2 nM,B9
10,1.5 nM,B10

# Target: T1, human PCSK9 (self-cleaved, mature, …)
# Assay: SPR pH 7.4
# Description: (§2) In order to determine the binding kinetics at the neutral pH, the biosensor analysis was conducted at 25° C. in a HBS-P buffer system (10 mM HEPES pH 7.4, 150 mM NaCl, and 0.05% Surfactant P20) using a ProteOn XPR36 optical biosensor (Bio-Rad, Hercules, Calif.) equipped with a GLC sensor chip (Bio-Rad, Hercules, Calif.). […] This surface type provided a format for reproducibly capturing fresh analysis antibodies (ligand) after each regeneration step. […] Blank (buffer) injections were run simultaneously with the five analyte concentrations and used to assess and subtract system artifacts. […] The surface was regenerated with 10 mM glycine, pH 1.5 for 30 s, at a flow rate of 50 uL/min. The data was aligned, double referenced, and fit to a simple 1:1 binding model using the ProteOn Manager 3.1.0 version 3.1.06 © software (Bio-Rad, Hercules, Calif.).
Kd,koff,kon,Binder
0.572 nM,0.000326 s⁻¹,570000 M⁻¹ s⁻¹,B11
0.0763 nM,1.98e-05 s⁻¹,260000 M⁻¹ s⁻¹,B12
0.232 nM,8.26e-05 s⁻¹,356000 M⁻¹ s⁻¹,B13
0.245 nM,5.89e-05 s⁻¹,240000 M⁻¹ s⁻¹,B14
0.292 nM,0.000194 s⁻¹,665000 M⁻¹ s⁻¹,B15
0.528 nM,0.000253 s⁻¹,480000 M⁻¹ s⁻¹,B16
0.0611 nM,1.98e-05 s⁻¹,325000 M⁻¹ s⁻¹,B1
0.285 nM,0.000152 s⁻¹,534000 M⁻¹ s⁻¹,B17
2.81 nM,0.00115 s⁻¹,410000 M⁻¹ s⁻¹,B18
0.459 nM,0.000304 s⁻¹,663000 M⁻¹ s⁻¹,B19
0.819 nM,0.000425 s⁻¹,519000 M⁻¹ s⁻¹,B20
1.28 nM,0.000758 s⁻¹,594000 M⁻¹ s⁻¹,B21
0.804 nM,0.000578 s⁻¹,719000 M⁻¹ s⁻¹,B22
1.57 nM,0.00092 s⁻¹,585000 M⁻¹ s⁻¹,B23
0.249 nM,9.47e-05 s⁻¹,381000 M⁻¹ s⁻¹,B4
0.199 nM,5.98e-05 s⁻¹,301000 M⁻¹ s⁻¹,B24
0.123 nM,4.14e-05 s⁻¹,335000 M⁻¹ s⁻¹,B25

# Target: T1, human PCSK9 (self-cleaved, mature, …)
# Assay: SPR pH 7.4
# Remark: another data set of the same source
# Description: as §2
Kd,koff,kon,Binder
0.572 nM,0.000326 s⁻¹,570000 M⁻¹ s⁻¹,B11
0.0763 nM,1.98e-05 s⁻¹,260000 M⁻¹ s⁻¹,B12
0.232 nM,8.26e-05 s⁻¹,356000 M⁻¹ s⁻¹,B13
0.245 nM,5.89e-05 s⁻¹,240000 M⁻¹ s⁻¹,B14
0.292 nM,0.000194 s⁻¹,665000 M⁻¹ s⁻¹,B15
0.528 nM,0.000253 s⁻¹,480000 M⁻¹ s⁻¹,B16
0.0611 nM,1.98e-05 s⁻¹,325000 M⁻¹ s⁻¹,B1
0.285 nM,0.000152 s⁻¹,534000 M⁻¹ s⁻¹,B17
2.81 nM,0.00115 s⁻¹,410000 M⁻¹ s⁻¹,B18
0.459 nM,0.000304 s⁻¹,663000 M⁻¹ s⁻¹,B19
0.819 nM,0.000425 s⁻¹,519000 M⁻¹ s⁻¹,B20
1.28 nM,0.000758 s⁻¹,594000 M⁻¹ s⁻¹,B21
0.804 nM,0.000578 s⁻¹,719000 M⁻¹ s⁻¹,B22
1.57 nM,0.00092 s⁻¹,585000 M⁻¹ s⁻¹,B23
0.249 nM,9.47e-05 s⁻¹,381000 M⁻¹ s⁻¹,B4
0.199 nM,5.98e-05 s⁻¹,301000 M⁻¹ s⁻¹,B24
0.123 nM,4.14e-05 s⁻¹,335000 M⁻¹ s⁻¹,B25

# Target: T1, human PCSK9 (self-cleaved, mature, …)
# Assay: solution equilibrium, BIAcore, pH 7.4
# Description: as §1
row,Kd,Binder
1,0.035 nM,B1
2,0.23 nM,B2
3,0.29 nM,B3
4,0.084 nM,B4
5,0.14 nM,B5
6,0.083 nM,B6
7,0.12 nM,B7
8,0.12 nM,B8
9,0.17 nM,B9
10,0.17 nM,B10

# Target: T1, human PCSK9 (self-cleaved, mature, …)
# Assay: solution equilibrium, BIAcore
# Description: as §1
row,KD ratio pH 5.5/pH 7.4,Binder
1,12.9,B1
2,12.2,B2
3,9.7,B3
4,8.1,B4
5,8.6,B5
6,10.4,B6
7,8.3,B7
8,12.5,B8
9,7.1,B9
10,8.8,B10
